The values that follow come from publication PMC5464773.

The target in the test is Myc-tagged Bfl-1 (human) (UniProt Q16548). The test is described as follows: fluorescence polarisation; competition: 0–10 μM unlabeled peptide titrated into 50 nM c-myc-tagged receptor plus 25 nM fluoresceinated BIM; 25 mM Tris pH 7.8, 50 mM NaCl, 1 mM EDTA, 5% DMSO, 0.001% v/v Triton-X; 23°C, 3 hr; fit to a complete competitive binding model. Background: Polarisation of emitted light reports the rotation of a fluorescent probe.
Sequence of Myc-tagged Bfl-1 (human) (Q16548 whole entry): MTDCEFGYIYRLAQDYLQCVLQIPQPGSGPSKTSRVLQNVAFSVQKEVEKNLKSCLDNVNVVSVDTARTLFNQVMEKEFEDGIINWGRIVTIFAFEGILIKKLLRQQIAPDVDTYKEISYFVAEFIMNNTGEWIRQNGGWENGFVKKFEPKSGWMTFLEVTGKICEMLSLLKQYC

By Ki is commonly meant a measure of affinity in units of concentration, obtained from inhibition or displacement. “BIM BH3 peptide (unlabeled) (peptide; other documents disagree on this pair)”: the Ki was below 100 pM.
